The source of these data is article PMC6336354, “A transient helix in the disordered region of dynein light intermediate chain links the motor to structurally diverse adaptors for cargo transport” (PLoS Biology, 2019).

Holding throughout (details): both partners purified
Assay [1] has as its target T1, SPDL1(2–359)::Strep-tag II (human, UniProt Q96EA4 2-359).
T1 construct: human Spindly (SPDL1), N-terminal region, residues 2-359; also called Spindly; source: E. coli BL21, purified (Ni-NTA, TEV cleavage, Strep-Tactin; dialysis or SEC); not shown: 6xHis::MBP, N-terminal, cleaved; Strep-tag II (after linker GSGSGR), C-terminal, kept
T1 sequence (looked up): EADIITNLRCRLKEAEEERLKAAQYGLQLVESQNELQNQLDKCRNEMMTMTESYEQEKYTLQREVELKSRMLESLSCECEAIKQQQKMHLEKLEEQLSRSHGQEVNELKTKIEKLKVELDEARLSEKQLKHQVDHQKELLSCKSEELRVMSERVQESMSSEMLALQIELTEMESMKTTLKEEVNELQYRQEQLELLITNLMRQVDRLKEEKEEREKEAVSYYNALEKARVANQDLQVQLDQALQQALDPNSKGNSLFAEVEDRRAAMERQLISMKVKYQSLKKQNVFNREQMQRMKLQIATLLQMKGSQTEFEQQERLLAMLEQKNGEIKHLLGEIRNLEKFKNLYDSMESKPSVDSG
Put plainly: MST; 10 nM LIC1(388–523)::6xHis labelled with Red-Tris NTA dye; 16 two-fold dilutions of adaptor::Strep-tag II; 25°C.

The target in assay [2] is T2, HOOK3(2–239)::Strep-tag II (human, UniProt Q86VS8 2-239).
T2 construct: human Hook homolog 3 (HOOK3), residues 2-239; used for NMR, SPR and MST; also called Hook homolog 3; source: E. coli Rosetta, purified (Ni-NTA, TEV cleavage, Strep-Tactin; dialysis or SEC); not shown: 6xHis::MBP, N-terminal, cleaved; Strep-tag II (after linker GSGSGR), C-terminal, kept
T2 sequence (looked up): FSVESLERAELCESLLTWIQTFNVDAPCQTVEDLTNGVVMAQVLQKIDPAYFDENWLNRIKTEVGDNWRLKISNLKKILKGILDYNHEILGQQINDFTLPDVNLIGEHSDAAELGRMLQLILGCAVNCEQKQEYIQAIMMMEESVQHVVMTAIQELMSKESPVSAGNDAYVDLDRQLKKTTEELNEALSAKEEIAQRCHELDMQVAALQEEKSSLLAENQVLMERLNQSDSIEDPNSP
The description is as above.

Assay [3] concerns the target T3, BICD2(2–422)::Strep-tag II (human, UniProt Q8TD16 2-422).
T3 construct: human bicaudal D homolog 2 (BICD2), N-terminal region, residues 2-422; also called bicaudal D homolog 2; source: E. coli BL21, purified (Ni-NTA, TEV cleavage, Strep-Tactin; dialysis or SEC); not shown: 6xHis::MBP, N-terminal, cleaved; Strep-tag II (after linker GSGSGR), C-terminal, kept
The assay is described as above.

Assay [4] addresses T1, SPDL1(2–359)::Strep-tag II. Put plainly: SPR; Biacore 3000; His-tagged LIC1 immobilised on NTA chip (200–300 RU), Strep-tagged adaptor as analyte; HBS-P (10 mM HEPES, 150 mM NaCl, 0.005% surfactant P20, pH 7.4). (SPR reads the build-up and loss of mass on a sensor chip optically.)
Assay [5] has as its target T2, HOOK3(2–239)::Strep-tag II. Described as above.
Assay [6] deals with T3, BICD2(2–422)::Strep-tag II. The assay is described as above.

One may read the Kd as the equilibrium constant for the complex coming apart.

T3 sequence (Q8TD16 2-422): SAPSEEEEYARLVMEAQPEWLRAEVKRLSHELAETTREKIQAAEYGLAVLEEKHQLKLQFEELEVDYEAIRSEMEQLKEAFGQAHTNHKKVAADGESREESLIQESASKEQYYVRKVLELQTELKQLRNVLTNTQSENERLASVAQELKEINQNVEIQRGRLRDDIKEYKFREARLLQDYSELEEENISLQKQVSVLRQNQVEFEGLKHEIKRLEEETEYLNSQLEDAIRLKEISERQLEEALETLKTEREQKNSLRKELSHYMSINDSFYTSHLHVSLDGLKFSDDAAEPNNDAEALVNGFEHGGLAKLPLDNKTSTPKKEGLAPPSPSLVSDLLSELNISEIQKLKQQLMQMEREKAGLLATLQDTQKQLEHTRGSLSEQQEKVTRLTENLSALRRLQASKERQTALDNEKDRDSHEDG

B1: LIC1(388–523)::6xHis (domain or fragment, human)
chain: WPTAAGRPVDASPRVPGGSPRTPNRSVSSNVASVSPIPAGSKKIDPNMKAGATSEGVLANFFNSLLSKKTGSPGGPGVSGGSPAGGAGGGSSGLPPSTKKSGQKPVLDVHAELDRITRKPVTVSPTTPTSPTEGEAS
notes: single N-terminal tryptophan added in the construct; 15N-labelled for the NMR titration; labelled with Red-Tris NTA dye on the His tag for MST; also called LIC1-C; LIC1-C::6xHis; source: E. coli BL21, purified (GSTrap, PreScission cleavage, second GSTrap, SEC Superdex 75); not shown: GST, N-terminal, cleaved; 6xHis (after linker GSGSG), C-terminal, kept
As for B1, the Kd in assay [1] turned out to be 13.1 µM; in assay [2], 4 µM; in assay [3] it was 6 µM; in assay [4], 5.7 µM; in assay [5], 1.9 µM; in assay [6], 1.07 µM.
